Values of other authors as cited in article PMC6484326.

Target: GPIIb-IIIa (Homo sapiens) (UniProt P08514)

fibrinogen (from UniProt P02671)
Kd: 100 nM
